From patent US20130266958A1 (INTERNATIONAL INSTITUTE OF CANCER IMMUNOLOGY, published 2013)

Legend:
Assay in all cases: HPLC folding test (Superdex 200), HLA class II monomer protein with 50-fold molar peptide, against solvent only
[1] = target: T1, HLA class II monomer protein DRB1* 0803 (human)
T1 construct: Soluble MHC class II monomer protein used in the HPLC folding test; also called HLA-DRB1* 0803 molecule
Experimental: (§1) After reacting the solution at 37° C., the retention time was analyzed using HPLC.
(§2) As a folding buffer, a 10% amount of a mixed solution of an HLA class II monomer protein and a peptide was added. The amount of the folding buffer added was calculated using the following calculation equation.
(§3) To a glass vial charged with an HLA class II monomer protein, a peptide solution and a folding buffer were added in a calculated amount, and the mixture was allowed to stand at 37° C. overnight. HPLC (Waters 2695 Separation Module) was started, and a Seperdex 200 column was equilibrated with an equilibrating buffer. To all samples, 300 μL of the equilibrate buffer was added and well mixed, and a 100 μL portion of the mixture was used as a sample injection volume to calculate the retention time. Analysis time was 50 minutes. The criterion for the folding of an HLA class II monomer protein with a peptide is a shift of the retention time of not less than 0.1 minute as compared with a control (solvent only).

[2] = target: T2, HLA class II monomer protein DRB1* 0101 (human)
T2 construct: Soluble MHC class II monomer protein used in the HPLC folding test
Experimental: as §1, §2, §3

[3] = target: T3, HLA class II monomer protein DRB4* 0101 (human)
T3 construct: Soluble MHC class II monomer protein used in the HPLC folding test
Experimental: as §1, §2, §3

[4] = target: T4, HLA class II monomer protein DRB1* 0901 (human)
T4 construct: Soluble MHC class II monomer protein used in the HPLC folding test; also called HLA-DRB1* 0901 molecule
Experimental: as §1, §2, §3

[5] = target: T5, HLA class II monomer protein DRB1* 1501 (human)
T5 construct: Soluble MHC class II monomer protein used in the HPLC folding test; also called HLA-DRB1* 1501 molecule
Experimental: as §1, §2, §3

[6] = target: T6, HLA class II monomer protein DRB1* 0405 (human)
T6 construct: Soluble MHC class II monomer protein used in the HPLC folding test
Experimental: as §1, §2, §3

[7] = target: T7, HLA class II monomer protein DRB1* 1502 (human)
T7 construct: Soluble MHC class II monomer protein used in the HPLC folding test; also called HLA-DRB1* 1502 molecule
Experimental: as §1, §2, §3

Measured: degree of shift of the retention time

B1: WT1-332 (a peptide consisting of the amino acid sequence depicted in SEQ ID NO:2) (peptide)
peptide: KRYFKLSHLQMHSRKH
notes: Synthetic peptide; part of human WT1 protein; also called WT1 peptide
≥ 0.1 min: [1] | [2] | [3] | [4] | [5] | [6] | [7]
